Measured values: the DeepSol protein solubility set

Test: soluble on expression in E. coli; label from the status in PepcDB or PDB records

| Sequence | soluble on expression in E. coli |
| --- | --- |
| MAHHHHHHMYLHLIKNSTAKTPQLYTAKDNSKTAMHLLTRRAANANYTVNRWYLKEKVDSSNRMRLEGLYECVLCASCTGSCPQYWWNREHFLGPAVLLQSYRWLVEPLDRDFDERVRMFETGNLVNMCHNIFNCSITCPKFLNPGLASKEIKRLSSPSTKRVGPAIEMEPVTSGKEAGKRSLLQRL | soluble |
| MAIALVTGGSRGIGRATALLLAQEGYTVAVNYQQNLHAAQEVMNLITQAGGKAFVLQADISDENQVVAMFTAIDQHDEPLAALVNNAGILFTQCTVENLTAERINRVLSTNVTGYFLCCREAVKRMALKNGGSGGAIVNVSSVASRLGSPGEYVDYAASKGAIDTLTTGLSLEVAAQGIRVNCVRPGFIYTEMHASGGEPGRVDRVKSNIPMQRGGQAEEVAQAIVWLLSDKASYVTGSFIDLAGGK | not soluble |
| VQTGIDTLLPDYKKQLKGKRIGLITNPAGVNTSLKSSVDILYENPDIKLTALFGPEHGVRGDAQAGDEVGSYIDEKTGVPVYSLYGKTKKPTPEMLKNVDILMFDIQDVGTRFYTYIYTMAYAMEAAKENGIPFMVLDRPNPQGGNHIEGPILEPEYASFVGLYPIPLKHGMTIGELASLFNKEFSIDADLTVVKMKHWKRKMDFDDTRLPFVLPSPNMPTVESTFVYPATGLIEGTNISEGRGTTKPFELIGAPFIKSTELEETLNSLHLPGVTFRAASFTPTFSKHQGTLCHGVQLYVTDRDKFEAVKTGLSVIKTIHDLYPEDFEFLSTGSFDKLAGNGWIRTKIENGTSVENIINSYEKTLQQFSKTRKKYLIY | soluble |
| MGSDKIHHHHHHMTPSEYQNPILCADYSDPDIVRVGDDFFMVSSSFNHVPALPILHSTDLVNWTIINHVMDELPLPGYDRYQPGKGVWAPSIRWHDGKLWVCFSTPDEGIFICHTEDPWGKWSAPHCLREARGWIDPCPFWDDNGQAWLVHAFAHSRSGIKHKLQLFAMAPDASELLGEGQIIYDGCCDLPTLEGPKVYQRAGWYYIFAPAGGVENGWQTVLRARQMTGPWEAKNVLFQGNTSINGPHQGGWVEGEEGECWFVHFQDLHLYGRVVHLQPMSWGNDGWPRIGEQIGNCGVGQPVLRWPRPKGLTPSPALAPQTSDYFAQGQPGIQWQWQANPSPEWLLPAEGELRLRCVPLSEVDGQRALYWAPQLLLQKFPALTFSAKTSVTLYAAQDGDAGGLIVYGERYAALLVEFGQGGYRLVWRHGWMSDAGVVRETRQVLAELKCGKCQLQVAVGEGGLCQFSWRAEEEWRKVPLCFAAGKGKWVGAKFGLLAASMVGLQSEGYSALQDFEVIL | not soluble |
| MTIAQQERPVAASPYRFEAEMTSGLERVAAHHHDLTLTSVFQPIFSLSHMRAVGYEALLRAHDALDRPVSPLDVFGEAARHGEAAQVDRLAQALHLENFARFGAEREWLFLNVHPGVLTDPFQAAALFANLKRLEIPPRRIVLEVLEQRADDIERLADAVREFREQGFLIALDDFGAGHSNIERIWQLNPDIVKLDRIMLSHAQHRAGLTAILHGLVTLLHEAGKLVLIEGIETEHEAQIALACDADFVQGHFFGRPAPGLPDGAAASACIGELTERYRQQAEASERRDAQRLAPYQRAFERAAERLAAGEPLDEVCWNFLALDHAARCFLLDERGRQAGRNVVRRADRARHETRFLPLADAQGANWLRRPYFRSAIAAPGRVQATRPYLSINEALPCVTLSIAVRVHDALCVLCGDIDWIDDEASMSA | soluble |
| GVVETPRSALKVTAQPNDVLLGNYVVLSPQTVLKSSKLAPVHPLAEQVKIITHNGRAGGYQVDGYDGRVLLPCGSAIPVPEFQALSESATMVYNEREFVNRKLYHIAVHGPSLNTDEENYEKVRAERTDAEYVFDVDKKCCVKREEASGLVLVGELTNPPFHEFAYEGLKIRPSAPYKTTVVGVFGVPGSGKSAIIKSLVTKHDLVTSGKKENCQEIVNDVKKHRGKGTSRENSDSILLNGCRRAVDILYVDEAFACHSGTLLALIALVKPRSKVVLCGDPKQCGFFNMMQLKVNFNHNICTEVCHKSISRRCTRPVTAIVSTLHYGGKMRTTNPCNKPIIIDTTGQTKPKPGDIVLTCFRGWAKQLQLDYRGHEVMTAAASQGLTRKGVYAVRQKVNENPLYAPASEHVNVLLTRTEDRLVWKTLAGDPWIKVLSNIPQGNFTATLEEWQEEHDKIMKVIEGPAAPVDAFQNKANVCWAKSLVPVLDTAGIRLTAEEWSTIITAFKEDRAYSPVVALNEICTKYYGVDLDSGLFSAPKVSLYYENNHWDNRPGGRMYGFNAATAARLEARHTFLKGQWHTGKQAVIAERKIQPLSVLDNVIPINRRLPHALVAEYKTVKGSRVEWLVNKVRGYHVLLVSEYNLALPRRRVTWLSPLNVTGADRCYDLSLGLPADAGRFDLVFVNIHTEFRIHHYQQCVDHAMKLQMLGGDALRLLKPGGILMRAYGYADKISEAVVSSLSRKFSSARVLRPDCVTSNTEVFLLFSNFDNGKRPSTLHQMNTKLSAVYAGEAMHTAGC | soluble |
| MPDPQISAIICTHNRDTYLGAAIDSLLVQDFAGEFEVVVIDNGSSDRTREVVEQRSSDSRLKYVFEPTIGLSVARNTGAKFASAEILAYLDDDAVASTHWLQVLYAAYQNYPQLAIAGGKVTLLWPPDTQPPRWLSSGLAGNLGAYDLGDKVVYIQQPGLTPRGLNYSIRRTFLEEIGGFDPHLGRVGKNLLSNEELQMTELALTGGWQVAYLPEALVAHNVAPERLNRSWFLNRGWWQGISECYREQLSGKAGVGQLSRGGERLARGLYKAFRYFSNPAERFDNLVYAYGQIGYLNAVLQGLLFTANNKGSQLEHHHHHH | soluble |
| MSCPYIDEDKIVGNVEMELKKGGTFDKLRKQAIEHVKDSKLVHRIENEMLVKVDEIIASSANLTQEEIQRKMKDFMNENAKMRNDINRQIRVEFEKEWVHDELDKEIDEKVNKQLENSI | not soluble |
| PEIKDHLIMVGFGFSGKTISKAAKAAGIPYIILETNPDIVKQEKTKGERIQYGDATFGAVQEHAGIRNARVLITGISDSVATRKIVEKAKELNPNIYVIAKVRNLQEMKHLHHLGADEIIPEEYETSVEIFVRLLEKYLV | not soluble |
| MTHNQSTALLTDMYELTMLQSALADGTAERQCTFEVFGRRLPNERRYGVVAGTPRVLEAVQNFRFTEAQLASLTFLNDTTLEYLRNYRFAGHIDGYREGELYFPHSPILTVRGTFAECVILETVILSIMNADSAVATAAARMVTAADGRTIIEMGSRRTHEYAAVTATRAAYLAGFSATSNLEAVHRYGIPGSGTAAHAWTLLHVNEDGTPNEKSAFESQVRAQGTGTTLLIDTYDIAQGVRNAIEVAGPELGAVRIDSGDLGVMTRKIRQELDNLGAHNTQIVVSSDLDEYAIAGLRGNPVDVFGVGTSVVTGSGAPTAGMVYKLVEVDGNPVSKRSRGKGMLGGAKRAARTHRASGTAVEELVFPYEHPVPQVGTLTSVELTIPLMRDGVVVEGLPTLEESRAYLAQQLVTIPWEGLALSRDEPVLATRHVGFDQLEHHHHHH | soluble |
| AHHHHHHGSKVVIVGNGPGGFELAKQLSQTYEVTVIDKEPVPYYSKPMLSHYIAGFIPRNRLFPYSLDWYRKRGIEIRLAEEAKLIDRGRKVVITEKGEVPYDTLVLATGARAREPQIKGKEYLLTLRTIFDADRIKESIENSGEAIIIGGGFIGLELAGNLAEAGYHVKLIHRGAMFLGLDEELSNMIKDMLEETGVKFFLNSELLEANEEGVLTNSGFIEGKVKICAIGIVPNVDLARRSGIHTGRGILIDDNFRTSAKDVYAIGDCAEYSGIIAGTAKAAMEQARVLADILKGEPRRYNFKFRSTVFKFGKLQIAIIGNTKGEGKWIEDNTKVFYENGKIIGAVVFNDIRKATKLEKEILDFYS | soluble |
| MESLKSNLFLTREAYLEAFETIMTPLKTAILTSEKPGVNFGSSGAVYDQQHAEMEALIRPLWGIGPYWVTCKDDVLRDAYVEKLIAGTDPSSPDYWGVIVDYDQYIVEAAALSLTLLLHKTYFWSCFSEKQQENIMVWLNKALGCKIPKNNWTFFKVLIRLALEGCGQVINQAELEEELALIECMYLGDGWYMDGKTTQRDYYISFAFHYYSLIYVKFMRERDPIRAKRFTERAVMFAQDYLYYFDEEGEALPYGRSQTYRFAQGAFFAALIFAEVEALPWGQIKTLLAKHLHCWMQQAIFTYDGRLSIGYHYENLVMAEGYNAPGSPYWAFKTFLLLAVDQDHPFWRAEPLAIKREEKRLIEKGNMLLIHPKMKTHVLGYPAGLWLENQAHAAAKYSKFVYSSRFGFSVPKAGARYEEGAFDNVLAVSRDGEYFRVKGKVHDFYLTEEQVYYKWLPFQEVEIETTIYPFGEWHVRVHEIVTSVPLKVREGGFSLPLLGKFSEKELGKEWARVDSGELCSQIVAIEGYDHAGILQPEPNTSLFFPRTSLPYLQKELPIGTHRLICLVGGVTREE | soluble |
| VKIELTVNGLKIQAQYQNEEIENVHKPLLHMLAALQTVNPQRRTVVFLCAPPGTGKSTLTTFWEYLAQQDPELPAIQTLPMDGFHHYNSWLDAHQLRPFKGAPETFDVAKLTENLRQVVEGDCTWPQYDRQKHDPVEDALHVTAPLVIVEGNWLLLDDEKWLELASFCDFSIFIHAPAQILRERLISRKIAGGLTRQVAEAFYARTDGPNVERVLMNSRQANLIVEMTEEGRYHFTS | soluble |
| MSLNSQGYAVVDFETTGLSPAKGDRAIEIGLVHVAPDGTLEDEHETLIHVDRSVGASWVHHITARELLHAPDFEGIAHELRDLLAGRVFVAHNVSFDSRFLLAEYSRMGASIPVDQSTMLCTMKLSRSLIGRGKLADCCEYFGIANEDAHSALSDAHATAILLGRLLEADPKWPGFQRRLDAAGAAAEQWPTFATLPKKEWLPRGTHLAEGHHHHHH | soluble |
| MSLKNQLGQLALEQAKTFGGKLEVQPKVDIKTKHDLSIAYTPGVASVSSAIAKDKTLAYDLTTKKNTVAVISDGTAVLGLGDIGPEAAMPVMEGKAALFKAFAGVDAIPIVLDTKDTEEIISIVKALAPTFGGINLEDISAPRCFEIEQRLIKECHIPVFHDDQHGTAIVVLAAIFNSLKLLKKSLDEVSIVVNGGGSAGLSITRKLLAAGATKVTVVDKFGIINEQEAAQLAPHHLDIAKVTNREFKSGTLEDALEGADIFIGVSAPGVLKAEWISKMAARPVIFAMANPIPEIYPDEALEAGAYIVGTGRSDFPNQINNVLAFPGIFRGALDARAKTITVEMQIAAAKGIASLVPDDALSTTNIIPDAFKEGVAEIVAKSVRSVVLKSEGHHHHHH | soluble |
| MGSDKIHHHHHHMAKTNPGRFFEDYTVGQTLHHAVPRTVTNGERALYHALYPARHALYSSDAFAQSCGLPGSPIDDLAAFHVVFGKTVPDVSLNAVANLGYAEGRWLKPVYAGDTLRSVSEVIGLKQNSNGKTGVVYVRTRGLNQRDETVMEYVRWVMVRKRDLDAPAPEIVVPELKKALAPNDLVVPEGLDFTAYDFALAGEPHRWGDYAVGETIDHVDGVTVEEAEHMLATRLWQNTAKVHFDLTFRPDGRLIYGGHVISMARALSFNGLANAQIIVGLNGGAHANPCFAGDTIKAWTEVLDKAETAAPGVGALRLRLVATKGGAPFALHGEDGKYLPEVLLDLDYWVLMPK | not soluble |
| MTTANTPVRPKSAIDAVADAYTEKLIELNPSFATTLGLPGHETEYQDYSPAGAAAHAEATRLALEALAGLEPSDDVDAVTLDAMRERLGLELEIHQSGWDAADLNNIASPAQDIRAIFDLMPTDTVEHWEHIAGRAANVPGAIEGYIASLRAAKDDRKVAAARQIRIVIEQTGRYAAEDGFFAKMAADASLGDAPLPAEVQDKLDAGTSAARSAYSALGAFLRDELLPVAPEKDAVGRERYSLASRSFIGAEVDLEETYAWGVQELERLISEQEKVAGQIKPGASIEEAKSILNNDPARQIKGTDALKAWMQELSDRAVSELADVHFDIPDVMKTLECMIAPTDEGGIYYTGPSDDFSRPGRMWWSVPAGEDTFTTWSETTTVFHEGVPGHHLQVATATYRRELLNNWRRNVCWVSGHGEGWALYAEQLMLELGYLKDPGDHMGMLDGQRMRAARVVFDIGVHLELPVPERWGTGTWTPEKGFDFLKANLDISEGQLQFEFTRYLGWPGQAPSYKVGQRLWEQIRAELESREGFDLKSFHSKALNIGSVGLDVLRRALL | soluble |
